The assay addresses Bax, endogenous in HeLa cells (human (endogenous in HeLa)) (UniProt Q07812).

Bax, endogenous in HeLa cells (human (endogenous in HeLa)), sequence (Q07812 whole entry): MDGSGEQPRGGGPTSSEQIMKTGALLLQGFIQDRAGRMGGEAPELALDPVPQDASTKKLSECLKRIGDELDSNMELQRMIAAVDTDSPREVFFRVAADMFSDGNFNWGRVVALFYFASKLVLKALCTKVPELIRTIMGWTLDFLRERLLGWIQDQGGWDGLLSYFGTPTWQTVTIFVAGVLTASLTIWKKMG

Turning to “6xHis-Bcl-xL^K87D (from UniProt Q07817-1 1-233) (natural protein)”, the inhibition of cBid- and Bim-triggered Bax-pore formation in ANTS/DPX liposomes (100 nM Bax, 20 nM cBid or Bim, 8-500 nM Bcl-xL protein), IC50 came out at 80 nM.

The values are drawn from publication PMC8990011.
